Target: FLAG-WRN K577M/E84A (UniProt Q14191 1-1432, E84A;K577M)
Test: EMSA; 2 mM ATPgS, 5 mM MgCl2; affinity similar to WT; Kd is only in Supp Fig 1e, value not in material; 35 mM Tris-HCl pH 7.5, 20 mM KCl, 5 mM MgCl2, 0.1 mg/ml BSA, 2 mM DTT, 5% glycerol, 2 mM ATPgS, 2 nM DNA, 15 min at RT; 5% 1x TBE native PAGE at 4 C
Details: protein: recombinant; tags: N-terminal FLAG (6xHis removed with TEV); label: 5' 32P on oligo B (as described for the CF preparation); four-strand regressed fork: AB partial duplex annealed to CD partial duplex

Sequence of FLAG-WRN K577M/E84A (Q14191 whole entry E84A/K577M): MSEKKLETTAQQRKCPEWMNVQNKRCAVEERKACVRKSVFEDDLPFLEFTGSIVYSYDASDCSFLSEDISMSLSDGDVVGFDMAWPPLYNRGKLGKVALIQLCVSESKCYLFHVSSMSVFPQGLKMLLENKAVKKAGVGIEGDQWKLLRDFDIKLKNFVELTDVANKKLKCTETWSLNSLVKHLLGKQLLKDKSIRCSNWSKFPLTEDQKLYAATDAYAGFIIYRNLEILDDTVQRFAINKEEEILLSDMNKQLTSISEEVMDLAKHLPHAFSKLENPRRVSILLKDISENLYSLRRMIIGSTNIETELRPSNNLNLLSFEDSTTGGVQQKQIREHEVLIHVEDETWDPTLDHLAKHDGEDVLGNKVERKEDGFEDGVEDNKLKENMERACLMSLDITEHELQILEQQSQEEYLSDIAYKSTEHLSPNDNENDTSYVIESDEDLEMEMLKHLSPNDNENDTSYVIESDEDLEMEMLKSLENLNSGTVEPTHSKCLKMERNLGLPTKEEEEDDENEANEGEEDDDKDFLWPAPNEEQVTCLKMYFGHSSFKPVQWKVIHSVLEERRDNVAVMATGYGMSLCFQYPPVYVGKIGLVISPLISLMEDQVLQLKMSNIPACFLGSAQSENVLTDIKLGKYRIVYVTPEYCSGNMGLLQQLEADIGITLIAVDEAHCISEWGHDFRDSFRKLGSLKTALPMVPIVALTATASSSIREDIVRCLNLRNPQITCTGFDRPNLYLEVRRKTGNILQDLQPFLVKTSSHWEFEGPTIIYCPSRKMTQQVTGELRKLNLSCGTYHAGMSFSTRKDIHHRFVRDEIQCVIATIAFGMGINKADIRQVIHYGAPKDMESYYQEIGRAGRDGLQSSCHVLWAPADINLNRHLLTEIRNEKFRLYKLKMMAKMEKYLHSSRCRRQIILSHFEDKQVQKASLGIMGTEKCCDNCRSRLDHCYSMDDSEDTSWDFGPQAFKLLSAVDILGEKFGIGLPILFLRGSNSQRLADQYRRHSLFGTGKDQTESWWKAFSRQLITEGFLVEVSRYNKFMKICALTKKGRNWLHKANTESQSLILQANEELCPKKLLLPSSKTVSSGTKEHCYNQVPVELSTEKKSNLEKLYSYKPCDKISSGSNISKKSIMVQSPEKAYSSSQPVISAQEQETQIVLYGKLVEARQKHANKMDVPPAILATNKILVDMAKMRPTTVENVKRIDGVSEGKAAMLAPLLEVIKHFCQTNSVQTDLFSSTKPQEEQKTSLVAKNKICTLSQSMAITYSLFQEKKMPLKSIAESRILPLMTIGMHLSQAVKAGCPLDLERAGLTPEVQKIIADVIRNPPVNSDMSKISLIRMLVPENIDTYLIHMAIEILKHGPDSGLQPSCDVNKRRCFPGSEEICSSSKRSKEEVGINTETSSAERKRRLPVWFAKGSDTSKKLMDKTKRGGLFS

B1: chicken-foot (CF) reversed fork substrate, oligos A+B+C+D (structured_DNA)
DNA 1: CTTTAGCTGCATATTTACAACATGTTGACCTTCAGTACAATCTGCTCTGATGCCGCATAGTGTCATGCCAGAGCTTTGTAC
DNA 2: CGGGTGTCGGGGCGCATGACACTATGCGGCATCAGAGCAGATTGTACTGAAGGTCAACATGTTGTAAATATGCAGCTAAAG
DNA 3: GTACAAAGCTCTGGCATGATACTATGCGGCATCAGAGCAGATT
DNA 4: TCAGTACAATCTGCTCTGATGCCGCATAGTATCATGCGCCCCGACACCCG
modifications: iMe-isodC at position 38 of oligo A (written as C)
binding result: binds

Source: publication PMC8590011, “WRN helicase safeguards deprotected replication forks in BRCA2-mutated cancer cells”
